Numbering of substitutions follows the chain as printed. Where two headings read alike, the source gives them in different places.

Holding throughout (test): filter binding
The target in data set [1] is T1, MpAgo WT (Marinitoga piezophila, UniProt H2J4R4 1-639).
T1 sequence: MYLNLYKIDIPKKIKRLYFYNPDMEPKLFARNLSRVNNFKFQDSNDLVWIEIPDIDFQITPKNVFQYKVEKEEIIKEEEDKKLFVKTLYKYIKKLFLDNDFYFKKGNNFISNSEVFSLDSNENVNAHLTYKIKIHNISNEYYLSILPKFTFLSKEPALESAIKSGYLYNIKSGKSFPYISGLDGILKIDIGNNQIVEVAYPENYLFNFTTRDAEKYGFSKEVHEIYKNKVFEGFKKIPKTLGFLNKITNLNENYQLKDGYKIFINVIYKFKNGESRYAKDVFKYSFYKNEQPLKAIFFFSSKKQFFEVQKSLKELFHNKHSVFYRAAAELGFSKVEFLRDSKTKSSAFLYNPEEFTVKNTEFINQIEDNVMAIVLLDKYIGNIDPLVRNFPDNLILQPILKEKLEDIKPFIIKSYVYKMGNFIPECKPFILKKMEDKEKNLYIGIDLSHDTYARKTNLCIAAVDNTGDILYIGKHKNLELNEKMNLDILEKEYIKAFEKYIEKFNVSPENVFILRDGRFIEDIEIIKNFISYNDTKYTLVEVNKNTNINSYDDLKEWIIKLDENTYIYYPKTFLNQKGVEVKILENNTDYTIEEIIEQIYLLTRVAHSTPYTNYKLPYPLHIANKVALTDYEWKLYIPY
Conditions: biotinylated.

The target in data set [2] is T2, dMpAgo (catalytically inactive MpAgo) (Marinitoga piezophila, UniProt H2J4R4 1-639, D446A).
T2 sequence: T1 sequence with D446A

For data set [3], the target named is T2, dMpAgo (catalytically inactive MpAgo). This is another data set of the same source.
The target is the same in data set [4]. The source holds these as a separate data set.
Data set [5] shares this target. The source holds these as a separate data set.
The target is the same in data set [6]. This is another data set of the same source.
Data set [7] shares this target. The source holds these as a separate data set.
For data set [8] the target is unchanged. The source holds these as a separate data set.
Data set [9] has the same target. The source holds these as a separate data set.
Data set [10] shares this target. This is another data set of the same source.
Data set [11] shares this target. The source holds these as a separate data set.
Data set [12] shares this target. The source holds these as a separate data set.
Data set [13] has the same target. This is another data set of the same source.
The target is the same in data set [14]. This is another data set of the same source.
Data set [15] deals with T1, MpAgo WT.
The target in data set [16] is T1, MpAgo WT. This is another data set of the same source.

Usually Kd stands for the constant that tells how readily two partners part at equilibrium. A low value points to tighter binding. 33-nt gRNA returned a Kd in [1] of 35 nM.

B1: BrdU guide / OFF target (mixed)
RNA 1: UAUACAACCUACUACCUCAUU
RNA 2: GUUAUGUGUGUGAUUAUAUUUGUUCCAGUUCCUGUGUAAUAGACAUGGAA
modifications: BrdU at guide 1
As to B1, the binding result in data set [2] was “no binding”.

B2: G6 guide / A target (mixed)
RNA 1: UGCGGGUGCCAUAUGCAACUU
RNA 2: GGCAGCAUUCAACCAUAUGGCAACCGCAUACAGCCAAG
modifications: BrdU at guide 1
In the case of B2, in [3], the Kd amounted to 0.779 ± 0.071 nM.

B3: A6 guide / A target (mixed)
RNA 1: UGCGGAUGCCAUAUGCAACUU
RNA 2: B2 RNA 2
modifications: BrdU at guide 1
Take B3: in data set [4], the binding signal is roughly 10 fold Kd vs I target.

B4: A6 guide / U target (complementary) (mixed)
RNA 1: UGCGGAUGCCAUAUGCAACUU
RNA 2: B2 RNA 2 with A23U
modifications: BrdU at guide 1
Take B4: in data set [3], the binding result is “binds”.

B5: C7 guide / A target (mixed)
RNA 1: UAGCGGCUGCCAUAUCCAACU
RNA 2: B2 RNA 2
modifications: BrdU at guide 1
The molecule B5 came in with a binding signal in data set [5] of roughly 33 fold Kd vs I target.

B6: C6 guide / U target (mixed)
RNA 1: UGCGGCUGCCAUAUGCAACUU
RNA 2: B2 RNA 2 with A23U
modifications: BrdU at guide 1
Take B6: the binding result in data set [6] was “binds”.

B7: G6 guide / U target (mixed)
RNA 1: UGCGGGUGCCAUAUGCAACUU
RNA 2: B2 RNA 2 with A23U
modifications: BrdU at guide 1
Take B7: the binding result in data set [7] is listed as “binds”.

B8: A7 guide / C target (mixed)
RNA 1: UAGCGGAUGCCAUAUCCAACU
RNA 2: B2 RNA 2 with A23C
modifications: BrdU at guide 1
In the case of B8, in data set [8], the binding signal is 47 fold Kd vs C7 guide/A target.

B9: G6 guide / C target (mixed)
RNA 1: UGCGGGUGCCAUAUGCAACUU
RNA 2: B2 RNA 2 with A23C
modifications: BrdU at guide 1
With B9, the binding signal in data set [9] was 13 fold Kd vs C6 guide/G target.

B10: U6 guide / U target (mixed)
RNA 1: UGCGGUUGCCAUAUGCAACUU
RNA 2: B2 RNA 2 with A23U
modifications: BrdU at guide 1
In the case of B10, the binding result in data set [6] was “binds”.

B11: A6 guide / mm1 (mixed)
RNA 1: UGCGGAUGCCAUAUGCAACUU
RNA 2: B2 RNA 2 with A23U, A28U
modifications: BrdU at guide 1
As to B11, in data set [10], the binding result was “binds”.

B12: C6 guide / G target (mixed)
RNA 1: UGCGGCUGCCAUAUGCAACUU
RNA 2: B2 RNA 2 with A23G
modifications: BrdU at guide 1
Consider B12, for which, in data set [11], the binding result is on record as “binds”.

B13: A7 guide / mm9 (mixed)
RNA 1: UAGCGGAUGCCAUAUCCAACU
RNA 2: B2 RNA 2 with C21A, A23U
modifications: BrdU at guide 1
In turn, B13 showed a binding signal in data set [12] of 327 fold Kd vs complementary.

B14: U6 guide / G target (mixed)
RNA 1: UGCGGUUGCCAUAUGCAACUU
RNA 2: B2 RNA 2 with A23G
modifications: BrdU at guide 1
For the molecule B14, in [4], the binding signal was 21 fold Kd vs G6 guide/U target.

B15: BrdU guide / ON target (mixed)
RNA 1: UAUACAACCUACUACCUCAUU
RNA 2: GGACUAUGAUCUAGAUAUUAAUGAGGUAGUAGGUUGUAUCUCAGGAGGUC
modifications: BrdU at guide 1
Take B15: the equilibrium dissociation constant (Kd) in data set [2] was determined as 0.175 ± 0.023 nM; in data set [13], 0.193 ± 0.02 nM; in data set [14] it was 0.5 ± 0.115 nM.

In the case of GAUACAACCUACUACCUCAUU (ssRNA, 5'-OH) [gRNA 5'-rG], the Kd worked out at 52 ± 4 nM in data set [15] and 49 ± 5 nM in data set [16].

For the origin of these results see article doi:10.1101/208041.
